{"source": "patent US20230226096A1", "about": "(Orna Therapeutics, Inc., priority 2020, published 2023)", "molecules": {"B1": {"name": "SAFV V13C (nucleic acid)", "DNA": "TTTTCGACGTGGTTGGAATTGCCATCATTTCCGACGAAAGTGCTATCATGCCTCCCCGATTATGTGATGTTTTCTGCCCTGCTGGGCGGAGCATTCTCGGGTTGAGAAACCTTGAATCTTTTTCTTTGGAACCTTGGTTCCCCCGGTCTAAGCCGCTTGGAATATGACAGGGTTATTTTCTTGATCTTATTTCTACTTTTGCGGGTTCTATCCGTAAAAAGGGTACGTGCTGCCCCTTCCTTCTCTGGAGAATTCACACGGCGGTCTTTCCGTCTCTCAACAAGTGTGAATGCAGCATGCCGGAAACGGTGAAGAAAACAGTTTTCTGTGGAAATTTAGAGTGCACATCGAAACAGCTGTAGCGACCTCACAGTAGCAGCGGACTCCCCTCTTGGCGACAAGAGCCTCTGCGGCCAAAAGCCCCGTGGATAAGATCCACTGCTGTGAGCGGTGCAACCCCAGCACCCTGGTTCGATGATCATTCTCTATGGAACCAGAAAATGGTTTTCTCAAGCCCTCCGGTAGAGAAGCCAAGAATGTCCTGAAGGTACCCCGCGTGCGGGATCTGATCAGGAGACCAATTGGCGGTGCTTTACACTGTCACTTTGGTTTAAAAATTGTCACAGCTTCTCCAAACCAAGTGGTCTTGGTTTTCCAATTTTGTTGAATGGCAAT"}, "B2": {"name": "BRAV-2 (nucleic acid)", "DNA": "TTTGTTTTGCGGCTTTGCCGTTGTTCGGGTTTTACCTGTTTTCACACAGCAAAACAGGCCTTCTAGTTTCGTGCTTAAACGAGATCATGCTCGAACTAGAACTACATAGCTGGTCACTGGACTCATACCACACCTTGTGGAGCTTTATGGGAAAGGTGGCTAGTGGGCTGTGGAAGTGACTCTGACCACATGCCTCTCAAGTGTGGGAAATCACGGATCGGTGTAGCGACGACAACAGGCCTTGGGACACCCTCTCCAGTAATGGAGACCCAAGGGGCCAAAAGCCACGCCTCGTGCCCTGTTGTTCACAACCCCAGTGCGACCCGTGTTAGTACCTATTTGCGAGAACTGTGTCTGGACAGCTAAACACAACCCTAGTGGGAGACTAAGGATGCCCAGGAGGTACCCGGAGGTAACAAGTGACACTCTGGATCTGACCTGGGGAGAGAGGGCTTGCTTTACAGGCGCCTCTCTTTAAAAAGCTTCTATGTCTCATCAGGCACCGGAGGCCGGGCCTTTTCCTTTTAAAATTACACTTA", "modifications": "Bovine rhinitis A virus"}, "B3": {"name": "GFTV (nucleic acid)", "DNA": "ATGGGGAAGGGTATGACGTGCCCCTTCCTTCTTCGGAGAACTCGCTCTAGTGGTCTTTCCACTTCTGGAAAAGAGTGAGTGCACGTGATCAGGACCGTCGAAGACGACAAATACCTGGTGCTCTATCTCATAGACGTTTCACAGCTGTAGCGACCCCTCAGTAGCAGCGGAAGCCCCCTCCTGGTGACAGGAGCCTCTGCGGCCAAAAGCCACGTGGATAAGATCCACTGCTGAGGGCGGTGCGACCCTAGCACCCTGTGATGCATACTAGTTGTAGCGTGCCGGACTATTGGTCTGTCATAAGACACCTGATAGAGAGACCAAGAATGTCCTGGAGGTACCCCGCGTGCGGGATCTGACCAGGAGACCATTGCCCAATGCTTTACAACGGGTCTATGGTTTAAAAACTGTCGCAGTCTCTCCAAACCAAGTGGTCTTGGTTTTCAATTACTTTGAATATTTCACT"}, "B4": {"name": "BRBV-1 (nucleic acid)", "DNA": "CCCCCCCTACTTAAAGATGTACGGTTTTGCTGCTTTCACAGAGTAAAGCAGATAGAGGTTCTGAACTGGCAAACTTTACCTCGAAACACGCCCGTTTTTCTGCTGTGTCTCACAGACTGTCCTGTCACACTTGTGGCGGCTTGTGACACTGTGAACATAGTGAGACCGACCAAGACAACAGTTTCAAGTGATGAACATCGAACGTCTAAACTGGATCCGTAACTGGACATGTTAGGGCAAGGACTTCCCCCCTGGTAACAGGAGCCTGGCTGGCCAAAAGCCCCGCTCATTGAGCCTAGCATGTTGTCGACCCTGGACTGTTCAGTTTAGTTAGTACATGGAATTCACTTGTCACGGTTCTTCTGAACTCGGTCTCTAGTATGACAGCCTAAGGATGCCCTCCAGGTACCCCGGGGTAACAAGTGACACCCGGGATCTGAGGAGGGGACTACTTTACGTAGTTTAAAAAACGTCTAAGCTGTTATGGTGACCAGAGGCTGGCACCTTTCACTTTTAAAATTACACTACTGACTACAATTGAAGTGATAACGGTTTTACAGGCTTTCAAACTAGTTACACAAGCACTGTTTTCCTGACACACACACTTT", "modifications": "Bovine rhinitis B virus"}, "B5": {"name": "Hunnivirus A2 (nucleic acid, listed as Hunnivirus sp.)", "DNA": "ACAGTTTTTGACAAGGACCCTCACCTGTCAATCGGGACCACCACTTTCAGTGACCCCGTGCGAAGTGTTGAGAGAAAGTGAGCTTTCTTACCCTTCATTTGTGAACCCTTCAGTCGAAGCCGCTTGGAATAAGATGGAAGGAAATGTTCATTCTAAATGGAGTGAAACATATACTTAATTTCCAGTGTTTAGTGGTCTTTCCACTAGACAACGGCACTGTCTTGCCGGAACTCTACACACCAACATTCCACGCTTGTGGGACTCAAATGTTGGATGACACAGTTGTAGCTGGAACTGAGTGTTTAGTGCACTCTGTGTAACAGTGAAAACAATGTGATCACTTCGGTGGGCTAGTAGCCTGTGGACTAACAACTGGTAACAGTTGCCTCAGGGGCCAAAAGCCACGGTGTTAACAGCACCCTACTAGTTTGATTGGAGCAATCCATGATGTTACAGAGTTAGTAACTGCCAAACAGATTGTACTGGTATCTTGGCATACCGTGCAACTTAGGATAGTGAAGGATGCCCTGGCGGTACCCATAGGTAACAAGTGACACTATGGATCTAAACAGGGGCTCACTCTACGTTGCTTTACAACTAGCTGTGAGTTAAAAAACGTCTAACTATCCACAACCTAGGGGACTAGGTTTTCCTTTTTATTTTTATACACAACTA"}, "B6": {"name": "Hunnivirus A1 (nucleic acid, listed as Hunnivirus sp.)", "DNA": "TAACGTTTGGCAAGAACCCTCACCTGTCAATTGGGACCACCACTTTCAGTGACCCCATGCGAAGTAGTGAGAGAGAATAAGCTTTCTTACCCTTCATTTGTGAACCCTTCAGTCGAAGCCGCTTGGAATAAGATAGGAGGAAAAGTTCATTCTAAATGGAGTGAAACATGTACTTCAGAATTTCTAGCACGCGCTGGGCTTTCTTGCGTGTGACGGCACTGTCTTGCCGGAGCTCTCCACACTGACACCCCACGCTTGTGGACCTTGGTGGCAGATGACAACACTGCAGCTGGAATTGAGTGTCTGGTACACTCTGTGTAACAGTGAAAACAATGTGATCACTTCGGTGAGCTAGTAGCCTGTGGACCAACAACTGGTAACAGTTGCCTCAGGGGCCAAAAGCCACGGTGTTTACAGCACCCTACTGGTTTGATTGGAGCAATCCAAGATGTCACAGAGTTAGTAATTGCCAAGCAGTCCGTACTGGTATCTTGACATACCGTGCAGTTTTGGATAGTGAAGGATGCCCTGACGGTACCCATAGGTAACAAGTGACACTATGGATCTAAGCAGGGGCTCACTCTACGCTGCTTTACAGCTGGCTGTGAGTTAAAAAACGTCTAGCTATCCACAACCTAGGGGACTAGGTTTTCCTTTTATTTAGATTACAATTAT"}, "B7": {"name": "ABPV (nucleic acid)", "DNA": "CCCGTCAAAATAACAACTTATAACACGATGTTACCCGAAGAAACCATTTTAGTGTAACATTTAAGATTAGAAGTAGTTCATCTAATAGAGATAGGCACTATTAGAAGGAGGCCTTTTCTAAAGGAGCCGTTAGTCAGCCCAGACAAGCGCAGTACTTTAGAAGAGAGAAGTTCCCCGATAGCGACCGAAAAGACGCGTTTTCCGTGCTAACTAATTTAAATGTGGGAACGAATATTATTATTGAAATTATGTGAGCCACGTAGCAATCAAGTCATGTTTTTGTCACTACGTTTACTCATCTAATGTAGATAATTTTGTTTAAGTACCTATTTAGGTGTCATCCCACCAGAGAAGAAATAATACGTACCGGAACCCAGAGTACACCCCTTATTTTAAGCCTTACTGGGCTTCTCTGTTAGTTAGTAATCTGGCCCACGTTTTGCGTTGAGTGGGGTCCCAACAGTAGGAATTCGACGGACAAGTAGCAAGCGAGTCGGTACCAATTGGTTTAGCCTTCGAAATTACTCTGGGCAGGAAGTTACTAAACGAGAACTTTCTGCTTAAATCCCAACGCACAAACAAATAGAGTAAATAAATAATTATA", "modifications": "Acute bee paralysis virus"}, "B8": {"name": "Ia Io (nucleic acid)", "DNA": "GGTGTCCGGGTGTGTGGGATAGACCCAGATGTGCAGTGGATGCGAGCATTTGAGTCAGAGTAGGAGCAAGCCCAGGGGCAAAGGGACCACATTGTGTATCCCGAATGAAGGATCGAGATTTCTCTCCTCATTACCCGGTGTCTTGTCACTGTTGGGGGGGCCCAACAGTCTTAGTCCTATACTGCCTGATAGGGTCGCGGCTGGCCGGACTCAAGTGCTATAGTCAGTTGATTTTCACTC"}, "B9": {"name": "Burpengary Virus (nucleic acid)", "DNA": "CTCCCCCCCCTTCCCCTTCCCGAGTAGGAGATTGGCATGTATGCTCTACATGCCCGATTCTCTCTTGCTCACTCTCTTAAATCCTGGTGGCGGTCTCGGATTAAACATTTATGTCGTATCTGGGATCGTCTTACTTGGTGGTAATTCCTCTGTTGCCTAGGGACCTCCGGACTGCCGGATTAAAGGTCTCAACAGAGGGCAATGTACAAGGAAGTCATTATACGCTAATTAAGTATTTGATGAATGACTAGTGTGACAGGGCTGAGGAACTCCCCCCGGGTAACCGGTGCCTCAGCGTCCGAAAGACACGTGGATAGGATCCACCCTGTTATACCCAGCACGATGTAATAGTCAAATACCTCTGATTTGTGTAGGATGTATAAATTGTGCATTGTAAATTTTGGGCGTAGAGATGCTCCGAAGGTACCCCGTTTTACGGGATCTGATCGGAGGCTAATTACCCAATGCGCCCTAAATAACTTCATATAATTTCTTTTTCTTTATTCAAA"}, "B10": {"name": "Mobovirus A (nucleic acid)", "DNA": "TATTCTCCCACAAACCTTCTTGTAACTCTGTTAAGCCTTTTACATCCATGTAATTTAATTTTCTCCACCTAAAAGGATTTCCCCCATGGTCCTTTTTGGCTCGAACAAATGCTACATAGGGTCTTGTTTTCTCCCCCTGGCTCTCTTGCCAGGGTTCCATACCCCAATTCCTCTATTTCCATGATTTTTCATCATGGTTTATTTTTACTGTCTTCTTATTTTCTGAGGTGACCAACTCCTAAGCCGACTGGGTCGCGGAAGCCCGGACTCCTCGCATCACTAGGGTGCGTAGCGATGTAGGCGAAAATATTGGTTGCTAGATGCATACATATAGTGAATTGATACTACACCAAACTCTGTTCTTTTTGAAACTAGCTATTTTCTAAGTAAGGTAGGCTACGGGTGAAACCTTACCATTGCAGGTACGTGAACCGCAACGGACATTTGGCCGAAGACTGGTGTACCCACGTCAGTTATAGGACCTCTTCAACGTTGGTGGACGGCATGTCACTGATTAGTTAGGCTAGTGAATTTAAGTTCAGGGGGTATCTTTTAGCTTAAGCGTGTATTCTAGTAGGACTTGCAGAGCCTCCCCACCTAGGAGGATCTCTGTTTATAGCCCCTTTTCCTTGTTCCGTTAGTTTTCCACACTTTTACAATATTTGATGATTTGTT"}}}
{"system": "HEK293 cells", "format": "cell-based, human", "conditions": "luminescence from secreted Gluc in supernatant 24 hours after transfection of HEK293 cells; circular RNA encoding Gluc with the named IRES (UTR truncated to 675 nt)"}
{"molecule": "B1", "Expression": "9.32E+07"}
{"molecule": "B2", "Expression": "3.98E+06"}
{"molecule": "B3", "Expression": "1.23E+06"}
{"molecule": "B4", "Expression": "3.34E+06"}
{"molecule": "B5", "Expression": "6.38E+06"}
{"molecule": "B6", "Expression": "1.61E+06"}
{"molecule": "B7", "Expression": "6.48E+05"}
{"molecule": "B8", "Expression": "1.35E+06"}
{"molecule": "B9", "Expression": "1.09E+07"}
{"molecule": "B10", "Expression": "3.44E+06"}
